Source: patent US20230365662A1
“And” between values parts separate entries of the source, which are not always exact repeats. Identical values can stand only once.

How the values were obtained:
[1] = target: HRgpA-6H (Porphyromonas gingivalis) (UniProt P28784); test: ELISA, Fab FASEBA supernatant on coated HRgpA-6H
[2] = target: HRgpA-6H (Porphyromonas gingivalis) (UniProt P28784); test: ELISA on coated HRgpA-6H

UniProt P28784, sequence (P28784 228-991 limits assumed): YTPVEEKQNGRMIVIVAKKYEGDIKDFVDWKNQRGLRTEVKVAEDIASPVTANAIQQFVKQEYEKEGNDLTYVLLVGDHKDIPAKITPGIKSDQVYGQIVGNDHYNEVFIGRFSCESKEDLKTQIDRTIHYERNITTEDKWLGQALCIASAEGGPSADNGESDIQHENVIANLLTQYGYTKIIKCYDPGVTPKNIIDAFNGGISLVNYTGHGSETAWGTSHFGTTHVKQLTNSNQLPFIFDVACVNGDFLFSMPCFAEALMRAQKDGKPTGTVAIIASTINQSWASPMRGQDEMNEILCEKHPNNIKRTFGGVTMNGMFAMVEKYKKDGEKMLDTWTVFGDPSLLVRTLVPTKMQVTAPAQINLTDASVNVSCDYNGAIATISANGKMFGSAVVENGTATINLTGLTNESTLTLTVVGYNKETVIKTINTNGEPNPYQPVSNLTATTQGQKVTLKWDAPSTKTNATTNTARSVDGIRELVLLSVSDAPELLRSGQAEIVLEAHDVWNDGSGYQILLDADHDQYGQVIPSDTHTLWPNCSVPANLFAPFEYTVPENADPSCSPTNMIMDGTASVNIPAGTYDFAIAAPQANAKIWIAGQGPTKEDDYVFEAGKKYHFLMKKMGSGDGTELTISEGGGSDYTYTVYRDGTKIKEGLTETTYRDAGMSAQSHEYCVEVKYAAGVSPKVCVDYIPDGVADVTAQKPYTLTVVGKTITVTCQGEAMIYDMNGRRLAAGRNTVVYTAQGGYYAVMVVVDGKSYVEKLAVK

B1: parental mouse (KB001) Fab FASEBA, VL variant L55R/S51G (Fab, V domains shown)
VH: EVQLKQSGPGLVAPSQSLSITCTVSGFSLSIYSVHWVRQPPGKGLEWLGMIWGGGSSDYNSALKSRLSISKDNSKSQVFLKMNSLQTDDTAMYYCARNGNFYAMDYWGQGTSVTVSS
VL: QIVLTQSPAIMSASLGERVTMTCTASSSVSSSFLHWYQQKPGSSPQLWIYGTSNRASGVPARFSGSGSGTSYSLTISSMEAEDAATYYCHQYHHSPYIYTFGGGTKLEIK
OD450nm [1]: 0.748 OD450nm | Ratio OD(Variant)/OD(WT) [1]: 0.955 ratio to WT

B2: KB001 mouse Fab FASEBA VH L63H (Fab, V domains shown)
VH: EVQLKQSGPGLVAPSQSLSITCTVSGFSLSIYSVHWVRQPPGKGLEWLGMIWGGGSSDYNSAHKSRLSISKDNSKSQVFLKMNSLQTDDTAMYYCARNGNFYAMDYWGQGTSVTVSS
VL: QIVLTQSPAIMSASLGERVTMTCTASSSVSSSFLHWYQQKPGSSPQLWIYSTSNLASGVPARFSGSGSGTSYSLTISSMEAEDAATYYCHQYHHSPYIYTFGGGTKLEIK
OD450nm [2]: 0.818 and 0.843 and 0.822 | Ratio OD(Variant)/OD(WT) [2]: 0.936 and 0.965 and 0.941

B3: KB001 mouse Fab FASEBA VH K64H (Fab, V domains shown)
VH: EVQLKQSGPGLVAPSQSLSITCTVSGFSLSIYSVHWVRQPPGKGLEWLGMIWGGGSSDYNSALHSRLSISKDNSKSQVFLKMNSLQTDDTAMYYCARNGNFYAMDYWGQGTSVTVSS
VL: QIVLTQSPAIMSASLGERVTMTCTASSSVSSSFLHWYQQKPGSSPQLWIYSTSNLASGVPARFSGSGSGTSYSLTISSMEAEDAATYYCHQYHHSPYIYTFGGGTKLEIK
OD450nm [2]: 0.752 | Ratio OD(Variant)/OD(WT) [2]: 0.909

B4: KB001 mouse Fab FASEBA VH L63Y (Fab, V domains shown)
VH: EVQLKQSGPGLVAPSQSLSITCTVSGFSLSIYSVHWVRQPPGKGLEWLGMIWGGGSSDYNSAYKSRLSISKDNSKSQVFLKMNSLQTDDTAMYYCARNGNFYAMDYWGQGTSVTVSS
VL: QIVLTQSPAIMSASLGERVTMTCTASSSVSSSFLHWYQQKPGSSPQLWIYSTSNLASGVPARFSGSGSGTSYSLTISSMEAEDAATYYCHQYHHSPYIYTFGGGTKLEIK
OD450nm [2]: 0.836 and 0.846 and 0.801 | Ratio OD(Variant)/OD(WT) [2]: 0.957 and 0.968 and 0.916

B5: parental mouse (KB001) Fab FASEBA, VL variant L55S (Fab, V domains shown)
VH: EVQLKQSGPGLVAPSQSLSITCTVSGFSLSIYSVHWVRQPPGKGLEWLGMIWGGGSSDYNSALKSRLSISKDNSKSQVFLKMNSLQTDDTAMYYCARNGNFYAMDYWGQGTSVTVSS
VL: QIVLTQSPAIMSASLGERVTMTCTASSSVSSSFLHWYQQKPGSSPQLWIYSTSNSASGVPARFSGSGSGTSYSLTISSMEAEDAATYYCHQYHHSPYIYTFGGGTKLEIK
OD450nm [1]: 0.655 OD450nm | Ratio OD(Variant)/OD(WT) [1]: 0.836 ratio to WT

B6: KB001 mouse Fab FASEBA VH A62I (Fab, V domains shown)
VH: EVQLKQSGPGLVAPSQSLSITCTVSGFSLSIYSVHWVRQPPGKGLEWLGMIWGGGSSDYNSILKSRLSISKDNSKSQVFLKMNSLQTDDTAMYYCARNGNFYAMDYWGQGTSVTVSS
VL: QIVLTQSPAIMSASLGERVTMTCTASSSVSSSFLHWYQQKPGSSPQLWIYSTSNLASGVPARFSGSGSGTSYSLTISSMEAEDAATYYCHQYHHSPYIYTFGGGTKLEIK
OD450nm [2]: 0.702 and 0.808 | Ratio OD(Variant)/OD(WT) [2]: 0.803 and 0.924

B7: KB001 mouse Fab FASEBA VH L63M (Fab, V domains shown)
VH: EVQLKQSGPGLVAPSQSLSITCTVSGFSLSIYSVHWVRQPPGKGLEWLGMIWGGGSSDYNSAMKSRLSISKDNSKSQVFLKMNSLQTDDTAMYYCARNGNFYAMDYWGQGTSVTVSS
VL: QIVLTQSPAIMSASLGERVTMTCTASSSVSSSFLHWYQQKPGSSPQLWIYSTSNLASGVPARFSGSGSGTSYSLTISSMEAEDAATYYCHQYHHSPYIYTFGGGTKLEIK
OD450nm [2]: 0.8 | Ratio OD(Variant)/OD(WT) [2]: 0.915

B8: KB001 mouse Fab FASEBA VH K64I (Fab, V domains shown)
VH: EVQLKQSGPGLVAPSQSLSITCTVSGFSLSIYSVHWVRQPPGKGLEWLGMIWGGGSSDYNSALISRLSISKDNSKSQVFLKMNSLQTDDTAMYYCARNGNFYAMDYWGQGTSVTVSS
VL: QIVLTQSPAIMSASLGERVTMTCTASSSVSSSFLHWYQQKPGSSPQLWIYSTSNLASGVPARFSGSGSGTSYSLTISSMEAEDAATYYCHQYHHSPYIYTFGGGTKLEIK
OD450nm [2]: 0.743 and 0.756 and 0.715 | Ratio OD(Variant)/OD(WT) [2]: 0.898 and 0.914 and 0.865

B9: parental mouse (KB001) Fab FASEBA, VL variant L55H (Fab, V domains shown)
VH: EVQLKQSGPGLVAPSQSLSITCTVSGFSLSIYSVHWVRQPPGKGLEWLGMIWGGGSSDYNSALKSRLSISKDNSKSQVFLKMNSLQTDDTAMYYCARNGNFYAMDYWGQGTSVTVSS
VL: QIVLTQSPAIMSASLGERVTMTCTASSSVSSSFLHWYQQKPGSSPQLWIYSTSNHASGVPARFSGSGSGTSYSLTISSMEAEDAATYYCHQYHHSPYIYTFGGGTKLEIK
OD450nm [1]: 0.64 OD450nm | Ratio OD(Variant)/OD(WT) [1]: 0.817 ratio to WT

B10: KB001 mouse Fab FASEBA VH K64S (Fab, V domains shown)
VH: EVQLKQSGPGLVAPSQSLSITCTVSGFSLSIYSVHWVRQPPGKGLEWLGMIWGGGSSDYNSALSSRLSISKDNSKSQVFLKMNSLQTDDTAMYYCARNGNFYAMDYWGQGTSVTVSS
VL: QIVLTQSPAIMSASLGERVTMTCTASSSVSSSFLHWYQQKPGSSPQLWIYSTSNLASGVPARFSGSGSGTSYSLTISSMEAEDAATYYCHQYHHSPYIYTFGGGTKLEIK
OD450nm [2]: 0.808 | Ratio OD(Variant)/OD(WT) [2]: 0.977

B11: KB001 mouse Fab FASEBA VH A62E (Fab, V domains shown)
VH: EVQLKQSGPGLVAPSQSLSITCTVSGFSLSIYSVHWVRQPPGKGLEWLGMIWGGGSSDYNSELKSRLSISKDNSKSQVFLKMNSLQTDDTAMYYCARNGNFYAMDYWGQGTSVTVSS
VL: QIVLTQSPAIMSASLGERVTMTCTASSSVSSSFLHWYQQKPGSSPQLWIYSTSNLASGVPARFSGSGSGTSYSLTISSMEAEDAATYYCHQYHHSPYIYTFGGGTKLEIK
OD450nm [2]: 0.854 | Ratio OD(Variant)/OD(WT) [2]: 0.977

B12: KB001 mouse Fab FASEBA VH L63V (Fab, V domains shown)
VH: EVQLKQSGPGLVAPSQSLSITCTVSGFSLSIYSVHWVRQPPGKGLEWLGMIWGGGSSDYNSAVKSRLSISKDNSKSQVFLKMNSLQTDDTAMYYCARNGNFYAMDYWGQGTSVTVSS
VL: QIVLTQSPAIMSASLGERVTMTCTASSSVSSSFLHWYQQKPGSSPQLWIYSTSNLASGVPARFSGSGSGTSYSLTISSMEAEDAATYYCHQYHHSPYIYTFGGGTKLEIK
OD450nm [2]: 0.784 and 0.77 and 0.778 | Ratio OD(Variant)/OD(WT) [2]: 0.897 and 0.881 and 0.89

B13: KB001 mouse Fab FASEBA VH K64V (Fab, V domains shown)
VH: EVQLKQSGPGLVAPSQSLSITCTVSGFSLSIYSVHWVRQPPGKGLEWLGMIWGGGSSDYNSALVSRLSISKDNSKSQVFLKMNSLQTDDTAMYYCARNGNFYAMDYWGQGTSVTVSS
VL: QIVLTQSPAIMSASLGERVTMTCTASSSVSSSFLHWYQQKPGSSPQLWIYSTSNLASGVPARFSGSGSGTSYSLTISSMEAEDAATYYCHQYHHSPYIYTFGGGTKLEIK
OD450nm [2]: 0.715 and 0.714 | Ratio OD(Variant)/OD(WT) [2]: 0.865 and 0.863

B14: KB001 mouse Fab FASEBA VH K64M (Fab, V domains shown)
VH: EVQLKQSGPGLVAPSQSLSITCTVSGFSLSIYSVHWVRQPPGKGLEWLGMIWGGGSSDYNSALMSRLSISKDNSKSQVFLKMNSLQTDDTAMYYCARNGNFYAMDYWGQGTSVTVSS
VL: QIVLTQSPAIMSASLGERVTMTCTASSSVSSSFLHWYQQKPGSSPQLWIYSTSNLASGVPARFSGSGSGTSYSLTISSMEAEDAATYYCHQYHHSPYIYTFGGGTKLEIK
OD450nm [2]: 0.799 and 0.757 and 0.78 | Ratio OD(Variant)/OD(WT) [2]: 0.966 and 0.915 and 0.943

B15: KB001 mouse Fab FASEBA VH K64G (Fab, V domains shown)
VH: EVQLKQSGPGLVAPSQSLSITCTVSGFSLSIYSVHWVRQPPGKGLEWLGMIWGGGSSDYNSALGSRLSISKDNSKSQVFLKMNSLQTDDTAMYYCARNGNFYAMDYWGQGTSVTVSS
VL: QIVLTQSPAIMSASLGERVTMTCTASSSVSSSFLHWYQQKPGSSPQLWIYSTSNLASGVPARFSGSGSGTSYSLTISSMEAEDAATYYCHQYHHSPYIYTFGGGTKLEIK
OD450nm [2]: 0.806 | Ratio OD(Variant)/OD(WT) [2]: 0.975

B16: KB001 mouse Fab FASEBA VH A62F (Fab, V domains shown)
VH: EVQLKQSGPGLVAPSQSLSITCTVSGFSLSIYSVHWVRQPPGKGLEWLGMIWGGGSSDYNSFLKSRLSISKDNSKSQVFLKMNSLQTDDTAMYYCARNGNFYAMDYWGQGTSVTVSS
VL: QIVLTQSPAIMSASLGERVTMTCTASSSVSSSFLHWYQQKPGSSPQLWIYSTSNLASGVPARFSGSGSGTSYSLTISSMEAEDAATYYCHQYHHSPYIYTFGGGTKLEIK
OD450nm [2]: 0.843 and 0.733 | Ratio OD(Variant)/OD(WT) [2]: 0.965 and 0.839

B17: KB001 mouse Fab FASEBA VH K64Y (Fab, V domains shown)
VH: EVQLKQSGPGLVAPSQSLSITCTVSGFSLSIYSVHWVRQPPGKGLEWLGMIWGGGSSDYNSALYSRLSISKDNSKSQVFLKMNSLQTDDTAMYYCARNGNFYAMDYWGQGTSVTVSS
VL: QIVLTQSPAIMSASLGERVTMTCTASSSVSSSFLHWYQQKPGSSPQLWIYSTSNLASGVPARFSGSGSGTSYSLTISSMEAEDAATYYCHQYHHSPYIYTFGGGTKLEIK
OD450nm [2]: 0.763 | Ratio OD(Variant)/OD(WT) [2]: 0.923

B18: KB001 mouse Fab FASEBA VH L63F (Fab, V domains shown)
VH: EVQLKQSGPGLVAPSQSLSITCTVSGFSLSIYSVHWVRQPPGKGLEWLGMIWGGGSSDYNSAFKSRLSISKDNSKSQVFLKMNSLQTDDTAMYYCARNGNFYAMDYWGQGTSVTVSS
VL: QIVLTQSPAIMSASLGERVTMTCTASSSVSSSFLHWYQQKPGSSPQLWIYSTSNLASGVPARFSGSGSGTSYSLTISSMEAEDAATYYCHQYHHSPYIYTFGGGTKLEIK
OD450nm [2]: 0.743 | Ratio OD(Variant)/OD(WT) [2]: 0.85

B19: parental mouse (KB001) Fab FASEBA, VL variant L55Q (Fab, V domains shown)
VH: EVQLKQSGPGLVAPSQSLSITCTVSGFSLSIYSVHWVRQPPGKGLEWLGMIWGGGSSDYNSALKSRLSISKDNSKSQVFLKMNSLQTDDTAMYYCARNGNFYAMDYWGQGTSVTVSS
VL: QIVLTQSPAIMSASLGERVTMTCTASSSVSSSFLHWYQQKPGSSPQLWIYSTSNQASGVPARFSGSGSGTSYSLTISSMEAEDAATYYCHQYHHSPYIYTFGGGTKLEIK
OD450nm [1]: 0.662 OD450nm | Ratio OD(Variant)/OD(WT) [1]: 0.845 ratio to WT

B20: KB001 mouse Fab FASEBA VH A62R (Fab, V domains shown)
VH: EVQLKQSGPGLVAPSQSLSITCTVSGFSLSIYSVHWVRQPPGKGLEWLGMIWGGGSSDYNSRLKSRLSISKDNSKSQVFLKMNSLQTDDTAMYYCARNGNFYAMDYWGQGTSVTVSS
VL: QIVLTQSPAIMSASLGERVTMTCTASSSVSSSFLHWYQQKPGSSPQLWIYSTSNLASGVPARFSGSGSGTSYSLTISSMEAEDAATYYCHQYHHSPYIYTFGGGTKLEIK
OD450nm [2]: 0.733 and 0.847 and 0.809 | Ratio OD(Variant)/OD(WT) [2]: 0.839 and 0.969 and 0.926
